Reference: PMC3017776, “Coordinated transcriptional regulation of two key genes in the lignin branch pathway - CAD and CCR - is mediated through MYB- binding sites”
Where a chain is given by its changes, count along the chain named.

B1: EgCAD2 [-203/-129] mutated MYBa (dsDNA)
DNA 1: TGGGAATGGCTAAAAAGCAAGTCTTGACCCTTAACCCACCCCACTGGTTCAGTCGACGCACCTCTGGTTAGGTATTGCTTGCTGAG
DNA 2: CTCAGCAAGCAATACCTAACCAGAGGTGCGTCGACTGAACCAGTGGGGTGGGTTAAGGGTCAAGACTTGCTTTTTAGCCATTCCCA
B2: EgCAD2 [-203/-129] mutated MYBa + MYBb (dsDNA)
DNA 1: B1 DNA 1 with G67A, T68G, T69A, A70T, G71C, G72T
DNA 2: B1 DNA 2 with C15A, C16G, T17A, A18T, A19C, C20T
B3: EgCCR [-119/-70] mutated MYB (dsDNA)
DNA 1: CCTTATAGGGGAGCGGGTCATTTCATGCGGTTCTAGAGTCTTGGTAAACATTGTC
DNA 2: GACAATGTTTACCAAGACTCTAGAACCGCATGAAATGACCCGCTCCCCTATAAGG
B4: EgCAD2 [-203/-129] mutated MYBb (dsDNA)
DNA 1: TGGGAATGGCTAAAAAGCAAGTCTTGACCCTTAACCCACCCCACTGGTTCACCTACCGCACCTCTGAGATCTTATTGCTTGCTGAG
DNA 2: CTCAGCAAGCAATAAGATCTCAGAGGTGCGGTAGGTGAACCAGTGGGGTGGGTTAAGGGTCAAGACTTGCTTTTTAGCCATTCCCA

What follows are binders tested against EgMYB2 (R2R3 MYB factor) (UniProt Q70KC5 1-321) (assay: EMSA; EMSA: 25 mM Tris-HCl pH 8, 250 mM NaCl, 10% glycerol, 7 mM beta-mercaptoethanol, 2 ug poly(dIdC), 25 ul, 30 min, room temperature; 0.125 ug EgMYB2; 4.8% PAGE in 0.5x TBE, 2.5% glycerol). Conditions: protein: recombinant; tags: GST (N-terminal, pGEX-5X-1); label: 32P; blunt.
Chain of EgMYB2 (R2R3 MYB factor) (Q70KC5 entry or part of it): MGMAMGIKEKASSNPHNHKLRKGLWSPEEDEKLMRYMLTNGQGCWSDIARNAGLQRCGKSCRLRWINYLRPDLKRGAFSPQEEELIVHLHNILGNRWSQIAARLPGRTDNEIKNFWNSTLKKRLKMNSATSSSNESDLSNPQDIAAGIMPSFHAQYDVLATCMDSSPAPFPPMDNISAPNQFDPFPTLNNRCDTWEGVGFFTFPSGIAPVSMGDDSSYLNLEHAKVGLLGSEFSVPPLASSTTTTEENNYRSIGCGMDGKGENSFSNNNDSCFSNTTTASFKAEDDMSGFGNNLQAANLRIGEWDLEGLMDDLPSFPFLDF

Binder | binding result
B1 | no binding
B2 | no binding
B3 | no binding
B4 | no binding
